Data on two substances can be found in patent EP2848684A1.

The target in this assay is NifDK complex purified from Azotobacter vinelandii (Azotobacter vinelandii) (UniProt P07328). Description: cell-based or functional assay.
Chain of UniProt P07328 (P07328 2-492 limits assumed, chain 1 of 2): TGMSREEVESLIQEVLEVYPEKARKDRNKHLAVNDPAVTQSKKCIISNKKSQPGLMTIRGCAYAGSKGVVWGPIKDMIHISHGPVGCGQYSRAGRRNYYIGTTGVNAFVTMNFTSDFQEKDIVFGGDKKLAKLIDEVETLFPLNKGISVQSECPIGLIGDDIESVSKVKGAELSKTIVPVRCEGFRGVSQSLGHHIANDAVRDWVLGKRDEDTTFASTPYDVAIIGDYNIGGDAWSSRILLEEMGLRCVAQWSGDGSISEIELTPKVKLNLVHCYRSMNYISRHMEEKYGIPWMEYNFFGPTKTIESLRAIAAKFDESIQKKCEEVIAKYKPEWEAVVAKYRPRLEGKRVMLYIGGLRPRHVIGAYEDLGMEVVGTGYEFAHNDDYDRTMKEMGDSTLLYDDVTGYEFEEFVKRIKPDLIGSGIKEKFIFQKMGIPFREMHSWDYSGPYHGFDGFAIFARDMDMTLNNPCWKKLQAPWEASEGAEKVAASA
Chain of UniProt P07328 (P07329 2-523 limits assumed, chain 2 of 2, further chain): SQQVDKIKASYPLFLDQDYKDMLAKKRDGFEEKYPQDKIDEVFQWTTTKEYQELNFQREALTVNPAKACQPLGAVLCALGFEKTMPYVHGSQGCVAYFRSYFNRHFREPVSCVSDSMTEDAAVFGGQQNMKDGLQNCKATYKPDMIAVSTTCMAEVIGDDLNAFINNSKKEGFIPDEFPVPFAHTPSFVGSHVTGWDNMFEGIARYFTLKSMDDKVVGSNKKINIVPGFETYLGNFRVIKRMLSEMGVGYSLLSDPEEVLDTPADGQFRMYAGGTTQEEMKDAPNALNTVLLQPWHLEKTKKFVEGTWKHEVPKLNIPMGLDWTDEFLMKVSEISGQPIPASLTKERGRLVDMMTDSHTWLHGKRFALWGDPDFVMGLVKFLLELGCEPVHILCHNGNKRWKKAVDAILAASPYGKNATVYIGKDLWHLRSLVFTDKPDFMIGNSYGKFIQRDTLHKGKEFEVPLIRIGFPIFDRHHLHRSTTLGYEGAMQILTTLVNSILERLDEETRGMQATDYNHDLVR

Substance “NifH protein purified from Azotobacter vinelandii (from UniProt P00459 2-290) (enzyme)” yielded an Ammonia of 179 nmol/mL and an RFU (Relative Fluorescence Units, ammonia detection) of 1300 RFU.
For “NifH purified from recombinant Saccharomyces cerevisiae GF2 cells (mlsSOD2-his8-NifH, A. vinelandii NifH sequence) (from UniProt P00459 1-290) (enzyme)”, the Ammonia was found to be 200 nmol/mL and the RFU (Relative Fluorescence Units, ammonia detection) amounted to 1460 RFU.
